Values of other authors in publication PMC3538140.

Biological target: TRAIL-R1 (Homo sapiens) (UniProt O00220)
Sequence of UniProt O00220 (O00220 24-468): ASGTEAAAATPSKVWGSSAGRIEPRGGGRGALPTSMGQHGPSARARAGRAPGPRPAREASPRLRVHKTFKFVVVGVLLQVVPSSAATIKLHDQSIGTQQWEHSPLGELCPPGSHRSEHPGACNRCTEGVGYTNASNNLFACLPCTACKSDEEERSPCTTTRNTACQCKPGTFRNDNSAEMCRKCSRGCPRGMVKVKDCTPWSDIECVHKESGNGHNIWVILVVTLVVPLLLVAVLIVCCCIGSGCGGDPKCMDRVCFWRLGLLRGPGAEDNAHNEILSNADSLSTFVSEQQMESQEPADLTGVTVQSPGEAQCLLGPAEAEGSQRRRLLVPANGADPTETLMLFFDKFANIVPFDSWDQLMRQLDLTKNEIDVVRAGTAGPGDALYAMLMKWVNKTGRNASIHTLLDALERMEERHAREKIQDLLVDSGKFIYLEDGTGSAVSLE

For TRAIL (from UniProt P50591), the Kd is listed as 70 nM.
